Molecular target: Skeletal muscle actin (chicken) (UniProt P68139)

Q: What does the source list for “Mouse utrophin residues 1-H416 with C-terminal biotin and FLAG tags (from UniProt E9Q6R7 1-416) (domain or fragment)”?
A: KS of the utrophin-based loaded in vitro motility assay (utrophin concentration that arrests motion), with PfMyoA K764E on the surface, 30 °C: 3.04 nM; KS of the utrophin-based loaded in vitro motility assay (utrophin concentration that arrests motion), with PfMyoA S19A on the surface, 30 °C: 2.42 nM; KS of the utrophin-based loaded in vitro motility assay (utrophin concentration that arrests motion), with PfMyoA WT on the surface, 30 °C: 1.4 nM; KS of the utrophin-based loaded in vitro motility assay (utrophin concentration that arrests motion), with PfMyoA ∆N on the surface, 30 °C: 10.8 nM

Reference: article PMC6650474
